Consider one sequence from paper PMC1807978.

What is called Kd is the constant that tells how readily two partners part at equilibrium. A low value points to tighter binding.

Common to all, as to assay: EMSA
On the technique in general: Mobility shift assays separate free from complexed probe on a gel.

The target in data set [1] is 4bFH (4bZf-M.HpaII F35H) (synthetic zinc finger; prokaryotic Mtase) (UniProt P15446).
The target in data set [2] is 4cFH (4cZf-M.HpaII F35H) (synthetic zinc finger; prokaryotic Mtase) (UniProt P15446).
The target in data set [3] is T1, M.HpaII wild type (no zinc finger) (UniProt P15446).
T1 sequence: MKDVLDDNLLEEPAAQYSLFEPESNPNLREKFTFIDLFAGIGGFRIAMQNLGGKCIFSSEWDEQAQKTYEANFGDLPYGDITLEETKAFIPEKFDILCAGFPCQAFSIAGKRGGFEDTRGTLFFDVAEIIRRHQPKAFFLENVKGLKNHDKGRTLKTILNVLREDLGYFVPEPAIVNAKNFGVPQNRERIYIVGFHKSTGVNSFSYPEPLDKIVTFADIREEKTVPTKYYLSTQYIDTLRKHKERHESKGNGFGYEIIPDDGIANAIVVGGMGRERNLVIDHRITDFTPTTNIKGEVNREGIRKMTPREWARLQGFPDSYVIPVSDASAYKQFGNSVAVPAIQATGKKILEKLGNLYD

Consider “TGGCCACGCCACTCCCCAGGCTCCATTCCAGGCCGGCGCAATGCTAGACTCGACGCGGCGCTCGTTGCCA (double strand) [Tb/c]”, for which the Kd in data set [1] worked out at 38 nM; in data set [2], 3 nM; in data set [3] it was 170 nM.
